B1: ADAMTS-5 active site mutant (E411-Q411) (protein)
chain: SISRARQVELLLVADASMARLYGRGLQHYLLTLASIANRLYSHASIENHIRLAVVKVVVLGDKDKSLEVSKNAATTLKNFCKWQHQHNQLGDDHEEHYDAAILFTREDLCGHHSCDTLGMADVGTICSPERSCAVIEDDGLHAAFTVAHQIGHLLGLSHDDSKFCEETFGSTEDKRLMSSILTSIDASKPWSKCTSATITEFLDDGHGNCLLDLPRKQILGPEELPGQTYDATQQCNLTFGPEYSVCPGMDVCARLWCAVVRQGQMVCLTKKLPAVEGTPCGKGRICLQGKCVDKTKKKYYSTSSHGNWGSWGSWGQCSRSCGGGVQFAYRHCNNPAPRNNGRYCTGKRAIYRSCSLMPCPPNGKSFRHEQCEAKNGYQSDAKGVKTFVEWVPKYAGVLPADVCKLTCRAKGTGYYVVFSPKVTDGTECRPYSNSVCVRGKCVRTGCDGIIGSKLQYDKCGVCGGDNSSCTKIVGTFNKKSKGYTDVVRIPEGATHIKVRQFKAKDQTRFTAYLALKKKNGEYLINGKYMISTSETIIDINGTVMNYSGWSHRDDFLHGMGYSATKEILIVQILATDPTKPLDVRYSFFVPKKSTPKVNSVTSHGSNKVGSHTSQPQWVTGPWLACSRTCDTGWHTRTVQCQDGNRKLAKGCPLSQRPSAFKQCLLKKC
B2: truncated aggrecanase-2 from amino acid #1 through amino acid #567 (protein)
chain: SISRARQVELLLVADASMARLYGRGLQHYLLTLASIANRLYSHASIENHIRLAVVKVVVLGDKDKSLEVSKNAATTLKNFCKWQHQHNQLGDDHEEHYDAAILFTREDLCGHHSCDTLGMADVGTICSPERSCAVIEDDGLHAAFTVAHEIGHLLGLSHDDSKFCEETFGSTEDKRLMSSILTSIDASKPWSKCTSATITEFLDDGHGNCLLDLPRKQILGPEELPGQTYDATQQCNLTFGPEYSVCPGMDVCARLWCAVVRQGQMVCLTKKLPAVEGTPCGKGRICLQGKCVDKTKKKYYSTSSH
B3: truncated aggrecanase-2 from amino acid #1 through amino acid #628 (protein)
chain: SISRARQVELLLVADASMARLYGRGLQHYLLTLASIANRLYSHASIENHIRLAVVKVVVLGDKDKSLEVSKNAATTLKNFCKWQHQHNQLGDDHEEHYDAAILFTREDLCGHHSCDTLGMADVGTICSPERSCAVIEDDGLHAAFTVAHEIGHLLGLSHDDSKFCEETFGSTEDKRLMSSILTSIDASKPWSKCTSATITEFLDDGHGNCLLDLPRKQILGPEELPGQTYDATQQCNLTFGPEYSVCPGMDVCARLWCAVVRQGQMVCLTKKLPAVEGTPCGKGRICLQGKCVDKTKKKYYSTSSHGNWGSWGSWGQCSRSCGGGVQFAYRHCNNPAPRNNGRYCTGKRAIYRSCSLMPCPPNGKSF

Molecular target: chondroitinase-treated bovine aggrecan, P13608
Sequence (P13608 17-2364): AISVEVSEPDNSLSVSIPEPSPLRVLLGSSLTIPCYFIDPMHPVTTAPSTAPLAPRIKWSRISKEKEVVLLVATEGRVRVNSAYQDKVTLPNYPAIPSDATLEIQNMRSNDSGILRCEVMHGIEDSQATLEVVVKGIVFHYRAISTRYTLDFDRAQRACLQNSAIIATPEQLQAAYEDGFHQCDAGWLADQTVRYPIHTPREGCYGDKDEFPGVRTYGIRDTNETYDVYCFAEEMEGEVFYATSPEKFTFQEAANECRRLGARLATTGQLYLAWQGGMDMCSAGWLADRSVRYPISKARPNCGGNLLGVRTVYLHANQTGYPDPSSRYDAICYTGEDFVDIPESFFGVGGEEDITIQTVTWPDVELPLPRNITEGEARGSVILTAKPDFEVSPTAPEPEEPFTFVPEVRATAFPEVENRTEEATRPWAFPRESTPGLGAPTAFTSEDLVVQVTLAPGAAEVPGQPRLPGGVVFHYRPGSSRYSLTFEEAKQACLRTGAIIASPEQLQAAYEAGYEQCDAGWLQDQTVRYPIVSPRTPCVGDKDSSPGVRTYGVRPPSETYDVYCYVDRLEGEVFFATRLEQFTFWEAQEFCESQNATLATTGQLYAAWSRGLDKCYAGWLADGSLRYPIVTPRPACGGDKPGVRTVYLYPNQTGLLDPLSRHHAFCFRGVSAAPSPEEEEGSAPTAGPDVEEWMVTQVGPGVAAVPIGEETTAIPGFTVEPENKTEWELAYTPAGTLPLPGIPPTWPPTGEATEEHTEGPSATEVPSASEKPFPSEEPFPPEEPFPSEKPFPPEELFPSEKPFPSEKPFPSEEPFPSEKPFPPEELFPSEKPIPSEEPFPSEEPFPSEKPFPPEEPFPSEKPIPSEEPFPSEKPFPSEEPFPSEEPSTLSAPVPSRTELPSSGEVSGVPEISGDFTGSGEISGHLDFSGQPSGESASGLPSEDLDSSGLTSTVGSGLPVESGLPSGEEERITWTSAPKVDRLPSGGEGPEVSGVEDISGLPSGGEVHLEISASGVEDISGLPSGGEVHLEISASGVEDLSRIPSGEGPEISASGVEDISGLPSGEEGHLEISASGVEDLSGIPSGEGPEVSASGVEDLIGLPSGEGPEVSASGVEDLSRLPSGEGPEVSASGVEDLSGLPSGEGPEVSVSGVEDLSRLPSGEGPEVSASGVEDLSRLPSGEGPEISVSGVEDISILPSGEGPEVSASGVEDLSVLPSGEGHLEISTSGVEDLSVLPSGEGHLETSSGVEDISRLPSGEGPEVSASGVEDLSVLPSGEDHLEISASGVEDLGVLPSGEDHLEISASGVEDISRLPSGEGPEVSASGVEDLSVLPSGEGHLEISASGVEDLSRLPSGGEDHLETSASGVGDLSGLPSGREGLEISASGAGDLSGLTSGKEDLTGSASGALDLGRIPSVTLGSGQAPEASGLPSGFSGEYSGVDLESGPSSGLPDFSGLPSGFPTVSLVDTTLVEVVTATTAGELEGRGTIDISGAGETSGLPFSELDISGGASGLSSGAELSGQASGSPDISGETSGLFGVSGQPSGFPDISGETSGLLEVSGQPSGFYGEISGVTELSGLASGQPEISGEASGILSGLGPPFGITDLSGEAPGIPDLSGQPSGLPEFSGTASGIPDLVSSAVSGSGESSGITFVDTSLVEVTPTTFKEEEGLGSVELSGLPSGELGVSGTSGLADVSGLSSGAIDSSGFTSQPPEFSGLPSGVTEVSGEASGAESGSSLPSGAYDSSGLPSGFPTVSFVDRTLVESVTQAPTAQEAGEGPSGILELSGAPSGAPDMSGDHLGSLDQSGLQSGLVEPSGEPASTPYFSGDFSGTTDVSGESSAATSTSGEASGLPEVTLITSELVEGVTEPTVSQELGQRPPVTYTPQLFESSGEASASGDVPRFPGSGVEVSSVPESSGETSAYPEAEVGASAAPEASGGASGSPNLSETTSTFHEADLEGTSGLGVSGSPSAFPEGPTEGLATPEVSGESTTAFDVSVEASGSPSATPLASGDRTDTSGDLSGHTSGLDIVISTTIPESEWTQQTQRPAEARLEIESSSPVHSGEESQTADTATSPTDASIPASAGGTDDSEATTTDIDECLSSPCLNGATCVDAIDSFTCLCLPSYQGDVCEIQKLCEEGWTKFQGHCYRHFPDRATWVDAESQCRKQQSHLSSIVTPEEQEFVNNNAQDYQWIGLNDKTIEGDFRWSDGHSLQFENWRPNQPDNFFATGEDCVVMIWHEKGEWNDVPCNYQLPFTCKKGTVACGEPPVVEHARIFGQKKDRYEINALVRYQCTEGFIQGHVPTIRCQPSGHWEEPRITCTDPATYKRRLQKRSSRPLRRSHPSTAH

Protein | aggrecanase activity (ELISA) | % aggrecan cleavage (3B3 ELISA assay)
B1 | lacked aggrecanase activity as shown by ELISA (FIG. 16) | –
B2 | – | truncated aggrecanases of the invention having one or both TSP domains deleted are biologically active
B3 | – | truncated aggrecanases of the invention having one or both TSP domains deleted are biologically active

From patent publication US20040054149
